One block for each molecule: values may come before it.
Legend:
[1] = target: human CD163 on cells (human) (UniProt Q86VB7); test: flow cytometry, fresh whole blood, citrate as anticoagulant
[2] = target: human CD163 on cells (human) (UniProt Q86VB7); test: quantitative flow cytometry (Quantibrite PE beads), fresh EDTA whole blood
[3] = target: human CD163 on cells (human) (UniProt Q86VB7); test: flow cytometry, CD163high subset of peripheral blood dendritic cells; clone GHI/61 by paragraph 356
[4] = target: human CD163 on cells (human) (UniProt Q86VB7); test: 125I-labelled mAb on stable CD163 transfected Flp-In CHO cells (non-transfected cells: 1.23%)
[5] = target: human CD163 on cells (human) (UniProt Q86VB7); test: flow cytometry, CD14+ILT3+HLA-DR+ monocytes; clone GHI/61 by paragraph 356
[6] = target: human CD163 on cells (human) (UniProt Q86VB7); test: quantitative flow cytometry, PBMC isolated by density gradient centrifugation
[7] = target: human CD163 on cells (human) (UniProt Q86VB7); test: flow cytometry, PE mAb, CD163+ peripheral blood dendritic cells
[8] = target: human CD163 on cells (human) (UniProt Q86VB7); test: flow cytometry, fresh whole blood, heparin as anticoagulant
[9] = target: purified recombinant CD163 immobilized on a Biacore chip (human) (UniProt Q86VB7); test: SPR, immobilized recombinant CD163, 10 mM EDTA buffer
Sequence of purified recombinant CD163 immobilized on a Biacore chip (human) (Q86VB7 42-1050 limits assumed): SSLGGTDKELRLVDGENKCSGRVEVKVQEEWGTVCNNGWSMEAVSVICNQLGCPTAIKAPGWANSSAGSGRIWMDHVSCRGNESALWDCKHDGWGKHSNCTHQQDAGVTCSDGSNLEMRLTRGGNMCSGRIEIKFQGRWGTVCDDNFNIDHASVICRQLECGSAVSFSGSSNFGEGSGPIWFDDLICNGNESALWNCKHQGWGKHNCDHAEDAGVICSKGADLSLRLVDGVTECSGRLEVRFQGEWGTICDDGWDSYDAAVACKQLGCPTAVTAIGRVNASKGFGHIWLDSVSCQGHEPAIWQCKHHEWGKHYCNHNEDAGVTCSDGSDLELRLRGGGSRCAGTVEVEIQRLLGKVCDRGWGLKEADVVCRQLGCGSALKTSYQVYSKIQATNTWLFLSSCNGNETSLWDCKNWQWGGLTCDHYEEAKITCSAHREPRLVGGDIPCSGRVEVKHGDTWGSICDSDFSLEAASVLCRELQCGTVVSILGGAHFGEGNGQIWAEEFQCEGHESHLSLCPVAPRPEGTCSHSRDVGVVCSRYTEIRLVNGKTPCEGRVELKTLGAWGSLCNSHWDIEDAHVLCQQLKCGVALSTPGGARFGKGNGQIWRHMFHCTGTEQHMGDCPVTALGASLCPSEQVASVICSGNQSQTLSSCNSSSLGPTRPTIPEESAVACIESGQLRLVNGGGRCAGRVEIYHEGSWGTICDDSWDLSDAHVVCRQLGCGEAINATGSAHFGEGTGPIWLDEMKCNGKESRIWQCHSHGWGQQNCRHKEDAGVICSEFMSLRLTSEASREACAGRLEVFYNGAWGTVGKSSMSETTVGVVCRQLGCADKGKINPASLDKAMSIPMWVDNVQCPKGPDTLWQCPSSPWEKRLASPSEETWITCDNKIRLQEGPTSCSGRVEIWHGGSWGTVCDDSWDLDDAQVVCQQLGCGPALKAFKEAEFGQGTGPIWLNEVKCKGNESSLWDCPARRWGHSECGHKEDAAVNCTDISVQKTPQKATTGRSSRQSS

[10] = target: human CD163 on cells (human) (UniProt Q86VB7); test: flow cytometry, PBMC isolated by density gradient centrifugation
[11] = target: human CD163 on cells (human) (UniProt Q86VB7); test: flow cytometry, R-PE mAb, fresh EDTA whole blood
[12] = target: human CD163 on cells (human) (UniProt Q86VB7); test: quantitative flow cytometry, fresh whole blood, heparin as anticoagulant
[13] = target: human CD163 on cells (human) (UniProt Q86VB7); test: quantitative flow cytometry, fresh whole blood, citrate as anticoagulant
[14] = target: human CD163 on cells (human) (UniProt Q86VB7); test: flow cytometry, PE mAb, CD14-ILT3+ dendritic cells in whole blood
[15] = target: human CD163 on cells (human) (UniProt Q86VB7); test: flow cytometry, CD163low subset of peripheral blood dendritic cells; clone GHI/61 by paragraph 356
[16] = target: human CD163 on cells (human) (UniProt Q86VB7); test: flow cytometry, mononuclear cells from buffy coat, Mac2-158-FITC with KN2/NRY-Alexa Fluor647
[17] = target: human CD163 on cells (human) (UniProt Q86VB7); test: flow cytometry, human mononuclear cells from buffy coats stained with Mac2-158-FITC, anti-CD14-PE and KN2/NRY-Alexa Fluor647
[18] = target: human CD163 on cells (human) (UniProt Q86VB7); test: flow cytometry, fresh whole blood, EDTA as anticoagulant
[19] = target: human CD163 on cells (human) (UniProt Q86VB7); test: 125I-labelled mAb on stable CD163 transfected Flp-In CHO cells (non-transfected cells: 1.37%)
rat CD163 on cells (rat) [20] = target: rat CD163 on cells (rat) (UniProt D3Z9U2); test: flow cytometry, rat peritoneal macrophages stained with anti-rat CD172a-PE (ED9) and anti-rat CD163-FITC (ED2)
rat CD163 on cells (rat) [21] = target: rat CD163 on cells (rat) (UniProt D3Z9U2); test: flow cytometry, rat peritoneal macrophages, ED2-FITC
[22] = target: human CD163 on cells (human) (UniProt Q86VB7); test: 125I-labelled mAb on stable CD163 transfected Flp-In CHO cells (non-transfected cells: 1.47%)
[23] = target: purified recombinant CD163 immobilized on a Biacore chip (human) (UniProt Q86VB7); test: SPR, immobilized recombinant CD163, 2 mM free Ca2+
[24] = target: human CD163 on cells (human) (UniProt Q86VB7); test: quantitative flow cytometry, fresh whole blood, EDTA as anticoagulant
rat CD163 on cells (rat) [25] = target: rat CD163 on cells (rat) (UniProt D3Z9U2); test: flow cytometry, rat peritoneal macrophages, negative control staining with IgG-FITC
[26] = target: human CD163 on cells (human) (UniProt Q86VB7); test: quantitative flow cytometry (Quantibrite PE beads), fresh EDTA whole blood, isotype control
[27] = target: human CD163 on cells (human) (UniProt Q86VB7); test: flow cytometry, peripheral blood dendritic cells, negative staining control
[28] = target: T1, murine CD163 in solubilized murine spleen (mouse, UniProt Q2VLH6 39-1121, limits assumed); test: western blot of solubilized murine spleen with hybridoma supernatants
T1 construct: also called non-reduced CD163
T1 sequence (Q2VLH6 39-1121 limits assumed): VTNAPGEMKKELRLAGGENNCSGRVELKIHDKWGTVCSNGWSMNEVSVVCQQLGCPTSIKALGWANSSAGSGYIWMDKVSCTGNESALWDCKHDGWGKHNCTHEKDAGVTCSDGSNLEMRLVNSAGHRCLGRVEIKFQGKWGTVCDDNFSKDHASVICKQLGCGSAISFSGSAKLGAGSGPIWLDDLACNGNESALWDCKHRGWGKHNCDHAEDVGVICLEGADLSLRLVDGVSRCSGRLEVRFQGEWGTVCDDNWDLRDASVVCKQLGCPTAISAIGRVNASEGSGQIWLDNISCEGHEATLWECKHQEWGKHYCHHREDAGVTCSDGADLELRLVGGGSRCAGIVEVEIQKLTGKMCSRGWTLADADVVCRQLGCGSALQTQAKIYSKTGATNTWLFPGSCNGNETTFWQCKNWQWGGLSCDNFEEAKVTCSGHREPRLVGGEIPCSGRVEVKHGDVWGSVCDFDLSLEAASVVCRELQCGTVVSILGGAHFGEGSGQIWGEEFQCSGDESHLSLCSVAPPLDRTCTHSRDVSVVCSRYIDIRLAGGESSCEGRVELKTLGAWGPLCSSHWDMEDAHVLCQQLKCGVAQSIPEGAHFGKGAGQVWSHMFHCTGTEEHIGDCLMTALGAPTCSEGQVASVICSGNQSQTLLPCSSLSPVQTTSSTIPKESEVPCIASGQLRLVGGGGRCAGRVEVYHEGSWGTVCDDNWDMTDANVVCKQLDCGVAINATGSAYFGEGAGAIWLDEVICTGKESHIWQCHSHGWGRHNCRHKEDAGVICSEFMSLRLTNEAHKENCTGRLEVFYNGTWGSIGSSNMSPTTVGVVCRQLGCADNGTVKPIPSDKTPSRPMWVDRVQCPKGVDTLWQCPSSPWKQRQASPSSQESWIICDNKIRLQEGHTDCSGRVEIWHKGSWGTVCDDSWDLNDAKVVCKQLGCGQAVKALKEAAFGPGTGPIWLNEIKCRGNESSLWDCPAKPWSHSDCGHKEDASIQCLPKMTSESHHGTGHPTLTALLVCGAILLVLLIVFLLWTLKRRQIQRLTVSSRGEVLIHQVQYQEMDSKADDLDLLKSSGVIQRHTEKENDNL
Text: The clones were screened by testing binding of supernatants to murine CD163 in solubilized murine spleen loaded on a SDS-PAGE and western blotted, using standard techniques.

Molecule: Mac2-158 (antibody)
- fraction of CD14+ monocytes stained positive for CD163 [1]: 84%
- density of CD163 receptors per monocyte (PE antibodies bound per cell) [2]: 17700 per monocyte
- percent of peripheral monocytes showing co-binding of KN2/NRY and Mac2-158 [16]: 70%
- density of CD163 receptors per monocyte (PE antibodies bound per cell) [6]: 11400 per monocyte
- MFI [7]: 108 MFI
- fraction of CD14+ monocytes stained positive for CD163 [8]: 84.4%
- fraction of CD14+ monocytes stained positive for CD163 [10]: 81.1%
- fraction of CD14+ monocytes stained positive for CD163 [11]: 84.1%
- density of CD163 receptors per monocyte (PE antibodies bound per cell) [12]: 18900 per monocyte
- density of CD163 receptors per monocyte (PE antibodies bound per cell) [13]: 17700 per monocyte
- share of cells in the lower right quadrant (Mac2-158-FITC positive, CD14-PE negative) [17]: 1.22%
- share of cells in the lower right quadrant (Mac2-158-FITC positive, KN2/NRY-Alexa Fluor 647 negative) [17]: 4.45%
- share of cells in the upper right quadrant (Mac2-158-FITC positive, CD14-PE positive) [17]: 73.9%
- share of cells in the upper right quadrant (positive for both Mac2-158-FITC and KN2/NRY-Alexa Fluor 647) [17]: 70.7%
- fraction of peripheral blood dendritic cells recognized [14]: 32.3%
- fraction of CD14+ monocytes stained positive for CD163 [18]: 87.2%
- percentage of cell-associated radioactivity [19]: 61.3%

Molecule: RM3/1 (antibody)
- fraction of CD14+ monocytes stained positive for CD163 [1]: 12.5%
- percentage of cell-associated radioactivity [22]: 7.77%
- density of CD163 receptors per monocyte (PE antibodies bound per cell) [2]: 101 per monocyte
- Kd [23]: 0.6 nM
- density of CD163 receptors per monocyte (PE antibodies bound per cell) [6]: 132 per monocyte
- fraction of CD14+ monocytes stained positive for CD163 [8]: 3.33%
- fraction of CD14+ monocytes stained positive for CD163 [10]: 2.5%
- fraction of CD14+ monocytes stained positive for CD163 [11]: 0.33%
- density of CD163 receptors per monocyte (PE antibodies bound per cell) [12]: 210 per monocyte
- density of CD163 receptors per monocyte (PE antibodies bound per cell) [13]: 207 per monocyte
- density of CD163 receptors per monocyte (PE antibodies bound per cell) [24]: 86 per monocyte

Molecule: IgG-FITC (antibody)
- share of cells in the lower right quadrant (IgG FITC positive) (rat CD163 on cells (rat) [25]): 0.41%
- share of cells in the upper right quadrant (rat CD163 on cells (rat) [25]): 0.06%

B1: 3E10B10 (antibody, V domains shown)
VH: QVKLQESGGGLVQPKESLKISCAASGFTFSTAAMYWVRQAPGKGLDWVARIRTKPDNYATYYPASVKGRFTISRDDSKGMVYLQMDNLKTEDTAIYYCTAAYYYDGRFDYWGQGVMVTVAS
VL: DIVMTQTPSSQAVSAGERVTMRCKSSQSLLYSENKKNYLAWYQQKPGQSPKLLISWASTRESGVPDRFIGSGSGTDFTLTISSVQAEDLAVYYCDQYYDPPFTFGSGTKLEIK
notes: Rat IgG2a hybridoma antibody raised against mouse CD163 domain 1-3; also called rat anti-mouse E10B10 (IgG2a)
- binding result [28]: binds

The next lines start with the values.

- fraction of CD14+ monocytes stained positive for CD163 [1]: 64.4%
- density of CD163 receptors per monocyte (PE antibodies bound per cell) [2]: 1030 per monocyte
- MFI [3]: 34.6 MFI
- percentage of cell-associated radioactivity [4]: 1.23%
- percent of cells stained positive [5]: 88%
- density of CD163 receptors per monocyte (PE antibodies bound per cell) [6]: 108 per monocyte
- MFI [7]: 22.3 MFI
- fraction of CD14+ monocytes stained positive for CD163 [8]: 0.82%
- Kd [9]: 29 nM
- fraction of CD14+ monocytes stained positive for CD163 [10]: 1.26%
- fraction of CD14+ monocytes stained positive for CD163 [11]: 63%
- density of CD163 receptors per monocyte (PE antibodies bound per cell) [12]: 58.3 per monocyte
- density of CD163 receptors per monocyte (PE antibodies bound per cell) [13]: 1150 per monocyte
- fraction of peripheral blood dendritic cells recognized [14]: 10.5%
- MFI [15]: 4.2 MFI
Molecule: GHI/61 (antibody)

- share of cells in the lower right quadrant (CD163 FITC positive, CD172a PE negative) (rat CD163 on cells (rat) [20]): 0.01%
- share of cells in the upper right quadrant (CD163 FITC positive, CD172a PE positive) (rat CD163 on cells (rat) [20]): 42.9%
- percent of peritoneal macrophages CD163 positive (rat CD163 on cells (rat) [21]): 42%
Molecule: ED2 (antibody)

- background staining (PE antibodies bound per cell) [26]: 94 per monocyte
Molecule: R-PE-conjugated Mouse IgG1, k isotype control (MCG1) (antibody)

- MFI [27]: 1.23 MFI
Molecule: Mouse IgG, PE, k isotype control, MOPC-21 (antibody)

Reference: US20120276193A1 (CYTOGUIDE A S, published 2012)
